2 substances from PMC11957051 can be followed below.

In experiment [1] the target is P. aeruginosa RloA2, PA0462 (18–169) (P. aeruginosa). Put plainly: SEC-MALS. A general note: Size exclusion chromatography separates by hydrodynamic size, large species first.
Experiment [2] deals with P. fluorescens RloA, Pfl01_1762 (20–178) (P. fluorescens). Description: SEC-MALS.

Usually stoichiometry N stands for the number of molecules, sites or subunits per partner or assembly. Substance “P. aeruginosa RloA2, PA0462 (18–169) (enzyme)” registered a stoichiometry N in experiment [1] of 2.
Substance “P. fluorescens RloA, Pfl01_1762 (20–178) (enzyme)” displayed a stoichiometry N in experiment [2] of 2.
